In patent publication US20150203577A1 (Chugai, published 2015):
Each block holds one binder with its values, some of them ahead of it.

Assays:
[1] = target: T1, mouse FcγRII extracellular domain, C-terminally His-tagged (mouse, UniProt P08101 30-210); test: SPR Biacore T200, antibody captured on Protein L
T1 construct: the whole entry is named; also called mFcγRII; mFcgRII
T1 sequence: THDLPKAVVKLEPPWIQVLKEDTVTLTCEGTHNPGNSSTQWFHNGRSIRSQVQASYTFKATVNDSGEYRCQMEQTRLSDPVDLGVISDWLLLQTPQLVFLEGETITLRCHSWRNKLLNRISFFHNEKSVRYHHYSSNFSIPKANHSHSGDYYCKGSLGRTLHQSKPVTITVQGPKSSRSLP
Experimental: (§1) As for alterations, “X000Z” represents the substitution of amino acid X at EU numbering position 000 by amino acid Z. In this context, X and Z represent the one-letter codes of the amino acid residues.
(§2) Each altered antibody was analyzed for its interaction with each Fcγ receptor prepared above using Biacore T100 (GE Healthcare Japan Corp.), Biacore T200 (GE Healthcare Japan Corp.), Biacore A100, or Biacore 4000. The running buffer used was HBS-EP+ (GE Healthcare Japan Corp.). The assay temperature was set to 25° C. The sensor chips used were chips prepared by immobilizing Protein L (ACTIGEN or BioVision) onto Series S Sensor Chip CM5 (GE Healthcare Japan Corp.) or Series S Sensor Chip CM4 (GE Healthcare Japan Corp.) by the amine coupling method.
(§3) In order to calculate the KD value of each altered antibody for FcγR, kinetic analysis was conducted according to the following method: first, the antibody of interest was captured onto any of these chips and allowed to interact with mFcγR diluted with a running buffer. For the obtained sensorgram, the assay results were globally fit into the 1:1 Langmuir binding model using Biacore Evaluation Software to calculate an association rate constant ka (L/mol/s) and a dissociation rate constant kd (1/s). From these values, the dissociation constant KD (mol/L) was calculated.

[2] = target: T2, mouse FcγRIII extracellular domain, C-terminally His-tagged (mouse, UniProt P08508 31-215); test: SPR Biacore T200, antibody captured on Protein L
T2 construct: the whole entry is named; also called mFcγRIII; mFcgRIII
T2 chain: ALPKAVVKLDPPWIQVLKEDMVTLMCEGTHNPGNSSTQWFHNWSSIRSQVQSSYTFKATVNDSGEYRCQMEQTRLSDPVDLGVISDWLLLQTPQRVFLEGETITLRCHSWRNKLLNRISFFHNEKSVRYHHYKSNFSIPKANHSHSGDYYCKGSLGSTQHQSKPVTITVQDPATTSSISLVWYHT
Experimental: as §1, §2, §3

[3] = target: T1, mouse FcγRII extracellular domain, …; test: SPR Biacore T200, KD ratio
Experimental: as §1, §2, §3

[4] = target: T2, mouse FcγRIII extracellular domain, …; test: SPR Biacore T200, KD ratio
Experimental: as §1, §2, §3

mouse FcγRII [5] = target: T3, mouse FcγRII (mouse, UniProt P08101 30-210); test: told of the L104-mk1 form; SPR was run on the MRAL-k0 form
T3 construct: also called mFcγRII; mFcgRII
T3 sequence: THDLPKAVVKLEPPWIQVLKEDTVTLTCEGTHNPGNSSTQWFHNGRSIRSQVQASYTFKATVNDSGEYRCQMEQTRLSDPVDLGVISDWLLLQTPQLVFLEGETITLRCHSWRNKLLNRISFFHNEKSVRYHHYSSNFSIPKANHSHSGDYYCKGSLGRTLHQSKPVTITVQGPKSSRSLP

[6] = target: T4, mouse FcγRII extracellular domain, C-terminal His tag (mouse, UniProt P08101 30-210); test: SPR (Biacore T200); KD of H237-mIgG1/MRAL-k0 / KD of variant
T4 construct: Whole entry named; also called mFcγRII; mFcgRII
T4 sequence: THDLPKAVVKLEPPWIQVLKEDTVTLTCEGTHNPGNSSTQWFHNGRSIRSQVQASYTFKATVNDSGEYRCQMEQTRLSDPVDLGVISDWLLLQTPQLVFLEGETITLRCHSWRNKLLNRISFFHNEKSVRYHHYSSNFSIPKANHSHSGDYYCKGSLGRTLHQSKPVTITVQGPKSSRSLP
Experimental: as §2, §3

[7] = target: T5, mouse FcγRIII extracellular domain, C-terminal His tag (mouse, UniProt P08508 31-215); test: SPR (Biacore T200)
T5 construct: Whole entry named; also called mFcγRIII; mFcgRIII
T5 chain: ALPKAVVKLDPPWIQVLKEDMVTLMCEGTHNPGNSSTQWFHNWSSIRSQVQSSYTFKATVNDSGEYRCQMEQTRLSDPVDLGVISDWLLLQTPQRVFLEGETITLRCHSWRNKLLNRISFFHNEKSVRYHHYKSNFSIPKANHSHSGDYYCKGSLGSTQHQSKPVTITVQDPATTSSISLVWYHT

mouse FcγRII [8] = target: T3, mouse FcγRII; test: told of the L104-mk1 form; SPR (Table 28) was run on the MRAL-k0 form

Kd [1]: 1.32 nM
Kd [2]: 45.4 nM
relative mFcγRII-binding activity (mIgG1 = 1) [3]: 159 fold
relative mFcγRIII-binding activity (mIgG1 = 1) [4]: 6.2 fold
B1: H237-MB367/MRAL-k0 (antibody, mouse IgG1, kappa)
heavy: QVQLQESGPGLVKPSETLSLTCAVSGHSISHDHAWSWVRQPPGEGLEWIGFISYSGITNYNPSLQGRVTISRDNSKNTLYLQMNSLRAEDTAVYYCARSLARTTAMDYWGEGTLVTVSSAKTTPPSVYPLAPGSAAQTNSMVTLGCLVKGYFPEPVTVTWNSGSLSSGVHTFPAVLQSDLYTLSSSVTVPSSTWPSETVTCNVAHPASSTKVDKKIVPRDCGCKPCICEANEVEDVFIFPPKPKDVLTITLTPKVTCVVVDISKDDPEVQFSWFVDDVEVHTAQTQPREEQFNSTFRSVSELPIMHQDWLNGKEFKCRVNSAAFPAPIEKTISKTKGRPKAPQVYTIPPPKEQMAKDKVSLTCMITDFFPEDITVEWQWNGQPAENYKNTQPIMDTDGSYFVYSKLNVQKSNWEAGNTFTCSVLHEGLHNHHTEKSLSHSPGK
light: not shown
notes: T230E/V231A/P232N/S238E/S239D (EU) against H237-mIgG1; copies: 2 + 2

binding result (mouse FcγRII [5]): binds
B2: H237-MB367/L104-mk1 (antibody, mouse IgG1, kappa)
heavy: QVQLQESGPGLVKPSETLSLTCAVSGHSISHDHAWSWVRQPPGEGLEWIGFISYSGITNYNPSLQGRVTISRDNSKNTLYLQMNSLRAEDTAVYYCARSLARTTAMDYWGEGTLVTVSSAKTTPPSVYPLAPGSAAQTNSMVTLGCLVKGYFPEPVTVTWNSGSLSSGVHTFPAVLQSDLYTLSSSVTVPSSTWPSETVTCNVAHPASSTKVDKKIVPRDCGCKPCICEANEVEDVFIFPPKPKDVLTITLTPKVTCVVVDISKDDPEVQFSWFVDDVEVHTAQTQPREEQFNSTFRSVSELPIMHQDWLNGKEFKCRVNSAAFPAPIEKTISKTKGRPKAPQVYTIPPPKEQMAKDKVSLTCMITDFFPEDITVEWQWNGQPAENYKNTQPIMDTDGSYFVYSKLNVQKSNWEAGNTFTCSVLHEGLHNHHTEKSLSHSPGK
light: DIQMTQSPSSLSASVGDSVTITCQASTDISSHLNWYQQKPGKAPELLIYYGSHLLSGVPSRFSGSGSGTDFTFTISSLEAEDAATYYCGQGNRLPYTFGQGTKVEIERADAAPTVSIFPPSSEQLTSGGASVVCFLNNFYPKDINVKWKIDGSERQNGVLNSWTDQDSKDSTYSMSSTLTLTKDEYERHNSYTCEATHKTSTSPIVKSFNRNEC
notes: the text speaks of it for this form; copies: 2 + 2

relative mFcγRII-binding activity (mIgG1 = 1) [6]: 0.23 fold
binding result [7]: no binding
B3: H237-MB881/MRAL-k0 (antibody, mouse IgG1, kappa)
heavy: QVQLQESGPGLVKPSETLSLTCAVSGHSISHDHAWSWVRQPPGEGLEWIGFISYSGITNYNPSLQGRVTISRDNSKNTLYLQMNSLRAEDTAVYYCARSLARTTAMDYWGEGTLVTVSSAKTTPPSVYPLAPGSAAQTNSMVTLGCLVKGYFPEPVTVTWNSGSLSSGVHTFPAVLQSDLYTLSSSVTVPSSTWPSETVTCNVAHPASSTKVDKKIVPRDCGCKPCICEVNEEELVFIFPPKPKDVLTITLTPKVTCVVVDISKDDPEVQFSWFVDDVEVHTAQTQPREEQFNSTFRSVSELPIMHQDWLNGKEFKCRVNSAAFPAPIEKTISKTKGRPKAPQVYTIPPPKEQMAKDKVSLTCMITDFFPEDITVEWQWNGQPAENYKNTQPIMDTDGSYFVYSKLNVQKSNWEAGNTFTCSVLHEGLHNHHTEKSLSHSPGK
light: not shown
notes: copies: 2 + 2

relative mFcγRII-binding activity (H237-mIgG1/L104-mk1 = 1) (mouse FcγRII [8]): ~620 fold
B4: H237-MB492/L104-mk1 (antibody, mouse IgG1, kappa)
heavy: QVQLQESGPGLVKPSETLSLTCAVSGHSISHDHAWSWVRQPPGEGLEWIGFISYSGITNYNPSLQGRVTISRDNSKNTLYLQMNSLRAEDTAVYYCARSLARTTAMDYWGEGTLVTVSSAKTTPPSVYPLAPGSAAQTNSMVTLGCLVKGYFPEPVTVTWNSGSLSSGVHTFPAVLQSDLYTLSSSVTVPSSTWPSETVTCNVAHPASSTKVDKKIVPRDCGCKPCICEPNEVEDVFIFPPKPKDVLTITLTPKVTCVVVDISKDDPEVQFSWFVDDVEVHTAQTQPREEQFNSTFRSVSELPIMHQDWLNGKEFKCRVDSAAFPAPIEKTISKTKGRPKAPQVYTIPPPKEQMAKDKVSLTCMITDFFPEDITVEWQWNGQPAENYKNTQPIMDTDGSYFVYSKLNVQKSNWEAGNTFTCSVLHEGLHNHHTEKSLSHSPGK
light: DIQMTQSPSSLSASVGDSVTITCQASTDISSHLNWYQQKPGKAPELLIYYGSHLLSGVPSRFSGSGSGTDFTFTISSLEAEDAATYYCGQGNRLPYTFGQGTKVEIERADAAPTVSIFPPSSEQLTSGGASVVCFLNNFYPKDINVKWKIDGSERQNGVLNSWTDQDSKDSTYSMSSTLTLTKDEYERHNSYTCEATHKTSTSPIVKSFNRNEC
notes: the text gives the rounded value for this form; copies: 2 + 2
